{
  "source": "paper PMC8313695",
  "target": "p-ERK1/2 (Thr202/Tyr204)",
  "assay": "co-IP (IP: Flag, IB: p-ERK1/2), band intensity quantified in bar chart",
  "details": "whole-cell extracts from MCF-7C5RN cells; without CGP57380; parent: est. 0.24; read off a plot",
  "data": [
    {"substance": "Flag-WTAP (wild type) (from UniProt Q15007) S341A", "values": [
      {"measurement": "response", "value": 0.11}
    ]}
  ]
}
